Reference: article PMC6826206

Tested on: hcGAScat-WT (human)
Assay: fluorescence anisotropy
Details: reference; EMSA: 25 mM Tris-HCl pH 7.5, 1 mM DTT, 100 ug/ml BSA, 1 mM MgCl2, 45 mM KCl, 37 C 10 min, 7% PAGE in TAE at 4 C; FA: 5-10 nM FAM-dsDNA, Hill fit, buffer not …

Substance: dsDNA24
- binding signal (relative to WT): 1
